The assay deals with mesothelin-Fc fusion protein (human) (UniProt Q13421). Kind of assay: cell-based or functional assay.
Sequence of UniProt Q13421 (Q13421 other isoform, or with tags, fused parts or gaps limits assumed): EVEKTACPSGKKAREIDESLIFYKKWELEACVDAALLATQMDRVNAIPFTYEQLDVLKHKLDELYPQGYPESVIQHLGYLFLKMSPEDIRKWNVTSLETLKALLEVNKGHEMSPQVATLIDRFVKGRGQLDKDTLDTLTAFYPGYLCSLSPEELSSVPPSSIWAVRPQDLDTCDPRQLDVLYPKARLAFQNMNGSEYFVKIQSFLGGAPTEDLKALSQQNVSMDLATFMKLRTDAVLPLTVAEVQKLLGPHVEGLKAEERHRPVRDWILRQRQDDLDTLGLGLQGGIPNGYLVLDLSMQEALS

In turn, “mesothelin-specific 28z CAR (SS1 scFv, CD28 and CD3z domains)” came in with a Total Population Doublings (donor 1) (population doublings) of 5.8, a Total Population Doublings (donor 2) (population doublings) of 6.9 and a Total Population Doublings (donor 3) (population doublings) of 6.
The like results for “mesothelin-specific BBz CAR (SS1 scFv, 4-1BB and CD3z domains)” were, in that order, 8.8, 8.4 and 8.4.

Source of the values: US20250230217A1.
